The values that follow come from patent US20100041873A1 (ZymoGenetics, published 2010).

Residue numbers refer to the chain shown, from its start. “And” between values parts separate entries of the source, which are not always exact repeats. Identical values can stand only once. No end group written: not given here.

One test has as its target T1, Recombinant human IL-9 (human, UniProt P15248 19-144).
T1 construct: also called Hu IL-9
Briefly: Western blot. On the technique in general: Immunoblotting shows a protein as a band on a membrane.

In another test the target is T2, Recombinant human IL-4 (human, UniProt P05112 25-153).
T2 construct: also called Hu IL-4
T2 sequence (looked up): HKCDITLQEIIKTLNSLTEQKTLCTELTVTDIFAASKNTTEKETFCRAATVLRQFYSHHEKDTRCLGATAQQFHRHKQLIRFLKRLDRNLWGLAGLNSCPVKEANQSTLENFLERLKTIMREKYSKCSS
Briefly: Western blot.

The target in another test is T3, Recombinant human IL-15 (human, UniProt P40933 49-162).
T3 construct: also called Hu IL-15
T3 sequence (P40933 49-162 limits assumed): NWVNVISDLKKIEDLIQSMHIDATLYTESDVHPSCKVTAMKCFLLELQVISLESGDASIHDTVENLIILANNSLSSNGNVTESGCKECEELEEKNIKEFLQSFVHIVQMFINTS
Briefly: Western blot.

The target of the next test is T4, Recombinant human IL-7 (human, UniProt P13232 26-177).
T4 construct: also called Hu IL-7
T4 sequence (looked up): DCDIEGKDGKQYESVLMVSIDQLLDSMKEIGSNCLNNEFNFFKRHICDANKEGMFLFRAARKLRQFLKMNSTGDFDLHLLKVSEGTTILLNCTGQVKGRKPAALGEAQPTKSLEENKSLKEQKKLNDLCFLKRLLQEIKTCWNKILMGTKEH
Briefly: Western blot.

In the next test the target is T5, Recombinant human IL-2 (human, UniProt P60568 21-153).
T5 construct: also called Hu IL-2
T5 sequence (P60568 21-153 limits assumed): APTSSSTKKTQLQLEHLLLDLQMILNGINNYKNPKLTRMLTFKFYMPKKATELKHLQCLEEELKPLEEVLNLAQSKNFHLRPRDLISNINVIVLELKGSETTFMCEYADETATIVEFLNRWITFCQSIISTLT
Briefly: Western blot.

Test [1] addresses T6, Recombinant mutant human IL-21 (human, UniProt Q9HBE4 30-162, limits assumed).
T6 construct: also called IL-21 mutant; mutant human IL-21 protein
Briefly: direct ELISA. As to the method:
(§1) Wells were blocked with 200 μL/well of Blocking Buffer (PBS-Tween plus 1% w/v bovine serum albumin (BSA)) for 1 hour, after which the plates were washed twice with Wash Buffer. Antibody dilutions were prepared in 5% fetal bovine serum (FBS)/Iscove's Modified Dulbecco's Media (IMDM) medium and adjusted to 1 μg/ml. […] Following 1 hour incubation at ambient temperature, the wells were aspirated and the plates washed twice as described above. Horseradish peroxidase (HRP) labeled Goat anti Mouse IgG, Fc specific or Goat anti Rat IgG, Fc specific, or Goat anti Human IgG, Fc specific (Jackson ImmunoResearch Laboratories, West Grove, Pa.) at a dilution of 1:5000 with 5% FBS/IMDM medium was then added to each well, 100 μL/well, and the plates incubated at ambient temperature for 1 hour. After removal of unbound HRP conjugated antibody, the plates were washed five times, 100 μL /well of tetra methyl benzidine (TMB) (BioFX Laboratories, Owings Mills, Md.) added to each well and the plates incubated for 3 minutes at ambient temperature. Color development was stopped by the addition of 100 μL /well of 450 nm TMB Stop Reagent (BioFX Laboratories, Owings Mills, Md.) and the absorbance values of the wells read on a Molecular Devices Spectra MAX 340 instrument at 450 nm.
(In an ELISA, binding on a coated surface is turned into a signal by an enzyme label.)

The target of test [2] is T7, Human IL-21 peptide #1 (pyr30-K50) (human, N-terminal pyroGlu).
T7 construct: coated on ELISA plates; also called Peptide 1 N-Term
T7 peptide: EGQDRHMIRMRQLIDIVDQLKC
Briefly: direct ELISA. As to the method: as §1

For test [3], the target named is T8, Human IL-21 peptide #3 (N97-C122) (human).
T8 peptide: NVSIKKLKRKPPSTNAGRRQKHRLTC
Briefly: direct ELISA. As to the method:
as §1

The target of test [4] is T9, Human IL-21 peptide #4 (C125-S153) (human).
T9 construct: also called Peptide 4 C-Term
T9 sequence (peptide, as listed by the source): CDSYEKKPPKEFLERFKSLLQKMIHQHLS
Briefly: direct ELISA. As to the method:
as §1

For test [5], the target named is T10, Human IL-21 peptide #2 (N54-C71) (human).
T10 peptide: NDLVPEFLPAPEDVETNC
Briefly: direct ELISA. As to the method: as §1

The target of test [6] is T11, Hu IL-21 Peptide A1751 (conjugated to ovalbumin) (human, conjugated to ovalbumin).
T11 construct: also called peptide #3 N97-C122 conjugated to ovalbumin
T11 peptide: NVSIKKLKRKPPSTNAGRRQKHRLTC
Briefly: Western blot. As to the method:
(§2) For Western blots, the non-specific sites on the membranes were blocked with a buffer containing 20 mM Tris, pH 7.4, 0.5 mM EDTA, 0.5% IGEPAL CA-630, 150 mM NaCl, 0.25% gelatin, and 1% casein hydrolysate blocking solution (Western Blocking Reagent, Roche Diagnostics, Inc., Basel Switerzerland) (Blocking Buffer). The membranes were then incubated for 2 hrs at room temperature with purified monoclonal antibody (10 ng/ml or 100 ng/ml) in the Blocking Buffer followed by a 2 hr incubation with peroxidase conjugated donkey anti-human IgG (Jackson Laboratories, Bar Harbor, Me.). The membranes were washed 5 times with the Tris/EDTA/IGEPAL/NaCl/gelatin Blocking buffer which lacked the casein hydrolysate and developed with SUPERSIGNAL™ DuraWest Luminol/Enhancer/Peroxidase Solution (Pierce, Rockford, Ill.) for chemoluminescence detection. The blots were visualized using X-ray film based standard methods.

The target in test [7] is T12, Hu IL-21 Peptide A1750 (conjugated to ovalbumin) (human, also: chemically conjugated to ovalbumin).
T12 construct: also called peptide #2 N54-C71 conjugated to ovalbumin
T12 peptide: NDLVPEFLPAPEDVETNC
Briefly: Western blot. As to the method: as §2

The target in test [8] is T13, Hu IL-21 Peptide A1752 (conjugated to ovalbumin) (human, conjugated to ovalbumin).
T13 construct: also called peptide #4 C125-S153 conjugated to ovalbumin
Briefly: Western blot. As to the method:
as §2

Test [9] deals with T14, Recombinant cynomolgus IL-21 (cynomolgus monkey, UniProt Q9HBE4 30-162 (human entry), limits assumed).
T14 construct: Produced at ZymoGenetics; also called Cyno IL-21; cIL-21
T14 sequence (Q9HBE4 other isoform, or with tags, fused parts or gaps limits assumed): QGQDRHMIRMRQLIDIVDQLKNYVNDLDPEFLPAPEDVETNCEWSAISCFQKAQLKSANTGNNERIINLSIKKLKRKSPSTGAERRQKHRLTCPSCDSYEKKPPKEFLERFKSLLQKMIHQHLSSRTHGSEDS
Briefly: Western blot. As to the method:
as §2

Test [10] deals with T15, Recombinant human IL-21 (human, UniProt Q9HBE4 30-162). Briefly: cell-based or functional assay.
T15 sequence (Q9HBE4 30-162 limits assumed): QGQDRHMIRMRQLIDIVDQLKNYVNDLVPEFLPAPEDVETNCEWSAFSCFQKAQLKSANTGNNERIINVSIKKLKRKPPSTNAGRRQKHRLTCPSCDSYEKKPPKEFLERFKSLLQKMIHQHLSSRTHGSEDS
For test [11], the target named is T14, Recombinant cynomolgus IL-21. Briefly: cell-based or functional assay.
Test [12] addresses T15, Recombinant human IL-21. Briefly: cell-based or functional assay. This is another data set of the same source.
In test [13] the target is T15, Recombinant human IL-21. Briefly: cell-based or functional assay. The source holds these as a separate data set.
Test [14] deals with T15, Recombinant human IL-21. Briefly: cell-based or functional assay. The source holds these as a separate data set.
The target in another test is Recombinant rat IL-21 (rat, UniProt A3QPB9 18-146, limits assumed). Briefly: cell-based or functional assay.
Sequence of Recombinant rat IL-21 (A3QPB9 18-146 limits assumed): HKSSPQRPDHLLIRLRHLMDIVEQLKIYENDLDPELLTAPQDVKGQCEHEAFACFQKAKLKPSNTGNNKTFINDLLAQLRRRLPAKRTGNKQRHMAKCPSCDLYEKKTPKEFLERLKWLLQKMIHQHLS
Another test concerns the target Recombinant murine IL-21 (mouse, UniProt Q9ES17 18-146). Briefly: cell-based or functional assay.

T6 sequence (Q9HBE4 other isoform, or with tags, fused parts or gaps mutant limits assumed): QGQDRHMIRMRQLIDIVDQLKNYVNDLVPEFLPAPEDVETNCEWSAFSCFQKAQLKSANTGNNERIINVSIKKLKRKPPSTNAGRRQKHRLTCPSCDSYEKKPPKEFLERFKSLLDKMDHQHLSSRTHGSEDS
T1 sequence (P15248 19-144 limits assumed): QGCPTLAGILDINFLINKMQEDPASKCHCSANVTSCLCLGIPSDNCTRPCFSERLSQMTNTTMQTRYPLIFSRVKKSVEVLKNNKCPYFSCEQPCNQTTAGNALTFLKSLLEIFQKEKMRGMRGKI

B1: Human anti-human IL-21 monoclonal antibody 362.75.1.1 (antibody, V domains shown)
VH: QLQLQESGPGLVKPSETLSLTCTVSGGSISSRTYRWGWIRQPPGKELEWIGSIYYRGSTFYNPSLKSRVTVSVDTSKNQFSLKLSSVTAADTAVYYCARQSGYSGYDWFDPWGQGTLVTVSS
VL: EIVLTQSPATLSLSPGERATLSCRASQSVSSFLAWYQQKPGQAPRLLIYDASNRATGIPARFSGSGSGTDFTLTISSLEPEDFAVYYCQQRSNWITFGQGTRLEIK
notes: Hybridoma antibody, ATCC PTA-8791; isotype printed only as IgG
On to B1, for which the binding result with Recombinant human IL-9 was “no binding”; in the test with Recombinant human IL-4, “no binding”; in the test with Recombinant human IL-15, “no binding”; with Recombinant human IL-7, “no binding”; in the test with Recombinant human IL-2, “no binding”; in test [1] it was “no binding (tested: 1 ug/ml mAb)”. Besides, the binding result in test [2] was “no binding (tested: 1 ug/ml mAb)”; in [3] it was “no binding (tested: 1 ug/ml mAb)”; in test [4] it was “binds”; in [5], “no binding (tested: 1 ug/ml mAb)”; in test [6] it was “no binding (tested: 10 or 100 ng/ml mAb)”; in test [7], “no binding (tested: 10 or 100 ng/ml mAb)”. Also, the binding result in test [8] and in [9] was “binds” in each case.

B2: Human anti-human IL-21 monoclonal antibody 366.552.11 (antibody, V domains shown)
VH: QVQLQESGPGLVKPSETLSLTCTVSGGSISSDFWGWIRQPPGKGLEWIGYISSRGSTNYNPSLKRRVTISVDTSRNQFSLKLSSVTAADTAVYYCARSAGVTDFDFWGQGTLVTVSS
VL: DIQMTQSPSSVSASVGDRVTITCRASQGISSWLAWYQHKPGKAPKLLIYVASSLQSGVPSRFSGSGSGTDFTLTISSLQPEDFATYYCQQANSFPLTFGGGTKVEIK
notes: Hybridoma antibody, ATCC PTA-8787; isotype printed as IgG; also called 366.552.11.31
Take B2: the binding result with Recombinant human IL-9 is “no binding”; with Recombinant human IL-4, “no binding”; with Recombinant human IL-15, “no binding”; with Recombinant human IL-7, “no binding”; in the test with Recombinant human IL-2, “no binding”; in test [1] it was “no binding (tested: 1 ug/ml mAb)”. Also, the binding result is reported as “no binding (tested: 1 ug/ml mAb)” in test [2]; “no binding (tested: 1 ug/ml mAb)” in test [3]; “no binding (tested: 1 ug/ml mAb)” in test [5]; “no binding (tested: 10 or 100 ng/ml mAb)” in test [6]; “no binding (tested: 10 or 100 ng/ml mAb)” in test [7]. For the same molecule, in the test with Recombinant human IL-21 [10], the “IC50 (pM), STAT3-phosphorylation assay, Expt #1” value came to 59 pM. Moreover, in [11], the “Cyno IL-21 IC50 ([cIL-21] = 100 pM), STAT-Luciferase assay” value was 23 ng/mL and 156 pM. For the same molecule, the “IC50 (nM), B cell proliferation assay (anti-CD40 + 3.21 nM IL-21)” value with Recombinant human IL-21 [12] worked out at 4.75 nM. Moreover, the “IC50 (pM), 24 hr STAT-Luciferase assay, Expt #1” value with Recombinant human IL-21 [13] worked out at 2400 pM.

B3: Heterodimeric IL-21 soluble receptor (IL-21R/γc-Fc) (Fc fusion, not shown: a dimerising Fc or GST)
chain 1: not shown
chain 2: LNTTILTPNGNEDTTADFFLTTMPTDSLSVSTLPLPEVQCFVFNVEYMNCTWNSSSEPQPTNLTLHYWYKNSDNDKVQKCSHYLFSEEITSGCQLQKKEIHLYQTFVVQLQDPREPRRQATQMLKLQNLVIPWAPENLTLHKLSESQLELNWNNRFLNHCLEHLVQYRTDWDHSWTEQSVDYRHKFSLPSVDGQKRYTFRVRSRFNPLCGSAQHWSEWSHPIHWGSNTSKENPFLFALEA
On to B3, for which, in the test with Recombinant human IL-21 [14], the “% IgD-low, CD138+ Plasma Cells, antagonist:ligand 0.16:1” value came to 66.7%; the “% IgD-low, CD138+ Plasma Cells, antagonist:ligand 0.6:1” value stood at 54.2%; the “% IgD-low, CD138+ Plasma Cells, antagonist:ligand 2.5:1” value came out at 41.7%; the “% IgD-low, CD138+ Plasma Cells, antagonist:ligand 10:1” value worked out at 23.4%. Besides, in the test with Recombinant human IL-21 [10], the “IC50 (pM), STAT3-phosphorylation assay, Expt #1” value worked out at 25 pM; the “IC50 (pM), STAT3-phosphorylation assay, Expt #2” value amounted to 102 pM; the “IC50 (pM), STAT3-phosphorylation assay, Expt #3 (96 pM IL-21)” value stood at 140 pM. In addition, the “Rat IL-21 IC50 ([rIL-21] = 1.08 nM), STAT-Luciferase assay” value with Recombinant rat IL-21 was 708 ng/mL and 13.4 nM. In addition, the “Murine IL-21 IC50 ([mIL-21] = […] nM), STAT-Luciferase assay” value in the test with Recombinant murine IL-21 is 426 ng/mL and 8.06 nM. Also, in test [11], the “Cyno IL-21 IC50 ([cIL-21] = 100 pM), STAT-Luciferase assay” value was 20 ng/mL and 385 pM. The “IC50 (nM), B cell proliferation assay (anti-CD40 + 3.21 nM IL-21)” value with Recombinant human IL-21 [12] stood at 3.5 nM. For the same molecule, the “IC50 (pM), 24 hr STAT-Luciferase assay, Expt #2” value with Recombinant human IL-21 [13] was 1830 pM.

B4: Human anti-human IL-21 monoclonal antibody 362.78.1.44 (antibody, V domains shown)
VH: QVQLVESGGGVVQPGRSLRLSCAASGFTFSSYGMHWVRQAPGKGLEWVAFIWYDGSDKYYADSVKGRFTISRDNSKNTLYLQMNSLRAEDTAVYYCARDGDSSDWYGDYYFGMDVWGQGTTVTVSS
VL: not shown
notes: Hybridoma antibody, ATCC PTA-8790; also called clone 78
Regarding B4, in the test with Recombinant human IL-21 [14], the “% IgD-low, CD138+ Plasma Cells, antagonist:ligand 0.16:1” value is 42.8%; the “% IgD-low, CD138+ Plasma Cells, antagonist:ligand 0.6:1” value stood at 34.1%; the “% IgD-low, CD138+ Plasma Cells, antagonist:ligand 2.5:1” value turned out to be 15.5%; the “% IgD-low, CD138+ Plasma Cells, antagonist:ligand 10:1” value was found to be 13.7%. Moreover, the binding result in test [2] is recorded as “no binding (tested: 1 ug/ml mAb)”. The binding result in test [5] is on record as “no binding (tested: 1 ug/ml mAb)”. In addition, the binding result in test [7] is “no binding (tested: 10 or 100 ng/ml mAb)”. Moreover, the binding result in test [8] is on record as “no binding (tested: 10 or 100 ng/ml mAb)”.

B5: Human anti-human IL-21 monoclonal antibody 362.597.3 (antibody, V domains shown)
VH: B4 VH with S31T
VL: not shown
notes: Hybridoma antibody, ATCC PTA-8786; isotype printed as IgG; also called 362.597.3.15
Consider B5, for which the binding result in test [2] is “no binding (tested: 1 ug/ml mAb)”; in test [5], “no binding (tested: 1 ug/ml mAb)”; in test [7], “no binding (tested: 10 or 100 ng/ml mAb)”.
